Measurements reported in patent publication US20040161821A1 (COLD SPRING HARBOR LABORATORY, published 2004).

Experiments:
[1] = molecular target: T1, chimeric receptor CSF-MET, P07333
T1 chain: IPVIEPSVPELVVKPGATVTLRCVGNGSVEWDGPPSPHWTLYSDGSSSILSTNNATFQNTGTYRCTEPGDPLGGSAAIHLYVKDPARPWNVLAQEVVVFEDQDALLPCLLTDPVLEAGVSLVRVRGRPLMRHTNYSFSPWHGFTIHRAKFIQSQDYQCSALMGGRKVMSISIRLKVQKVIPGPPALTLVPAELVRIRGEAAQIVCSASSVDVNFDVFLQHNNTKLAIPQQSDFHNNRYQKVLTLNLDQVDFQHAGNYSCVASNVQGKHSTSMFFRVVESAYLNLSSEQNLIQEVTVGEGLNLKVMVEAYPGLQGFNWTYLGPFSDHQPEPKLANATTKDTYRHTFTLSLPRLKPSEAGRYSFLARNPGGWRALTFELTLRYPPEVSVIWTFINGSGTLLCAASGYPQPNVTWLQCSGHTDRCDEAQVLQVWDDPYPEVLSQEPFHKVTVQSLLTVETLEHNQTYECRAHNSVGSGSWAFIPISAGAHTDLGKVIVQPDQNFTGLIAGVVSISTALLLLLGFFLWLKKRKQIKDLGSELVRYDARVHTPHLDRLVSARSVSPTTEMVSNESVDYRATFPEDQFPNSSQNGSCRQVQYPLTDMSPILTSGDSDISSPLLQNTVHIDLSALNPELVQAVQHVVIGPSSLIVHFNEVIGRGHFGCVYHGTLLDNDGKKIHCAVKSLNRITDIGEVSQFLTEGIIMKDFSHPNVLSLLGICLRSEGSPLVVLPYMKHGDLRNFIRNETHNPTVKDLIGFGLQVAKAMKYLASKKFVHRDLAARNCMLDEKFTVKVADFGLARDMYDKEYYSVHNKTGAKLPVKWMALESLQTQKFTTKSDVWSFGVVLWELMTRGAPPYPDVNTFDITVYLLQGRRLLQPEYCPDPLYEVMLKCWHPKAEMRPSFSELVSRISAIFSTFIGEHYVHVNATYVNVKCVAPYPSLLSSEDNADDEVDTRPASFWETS

E-cadherin = molecular target: T2, E-cadherin (human, UniProt P12830 155-882); test: amylose pull-down from pervanadate-treated T-47D lysate, anti-E-cadherin immunoblot
T2 construct: Endogenous protein in lysate of pervanadate-treated T-47D cells
T2 sequence (looked up): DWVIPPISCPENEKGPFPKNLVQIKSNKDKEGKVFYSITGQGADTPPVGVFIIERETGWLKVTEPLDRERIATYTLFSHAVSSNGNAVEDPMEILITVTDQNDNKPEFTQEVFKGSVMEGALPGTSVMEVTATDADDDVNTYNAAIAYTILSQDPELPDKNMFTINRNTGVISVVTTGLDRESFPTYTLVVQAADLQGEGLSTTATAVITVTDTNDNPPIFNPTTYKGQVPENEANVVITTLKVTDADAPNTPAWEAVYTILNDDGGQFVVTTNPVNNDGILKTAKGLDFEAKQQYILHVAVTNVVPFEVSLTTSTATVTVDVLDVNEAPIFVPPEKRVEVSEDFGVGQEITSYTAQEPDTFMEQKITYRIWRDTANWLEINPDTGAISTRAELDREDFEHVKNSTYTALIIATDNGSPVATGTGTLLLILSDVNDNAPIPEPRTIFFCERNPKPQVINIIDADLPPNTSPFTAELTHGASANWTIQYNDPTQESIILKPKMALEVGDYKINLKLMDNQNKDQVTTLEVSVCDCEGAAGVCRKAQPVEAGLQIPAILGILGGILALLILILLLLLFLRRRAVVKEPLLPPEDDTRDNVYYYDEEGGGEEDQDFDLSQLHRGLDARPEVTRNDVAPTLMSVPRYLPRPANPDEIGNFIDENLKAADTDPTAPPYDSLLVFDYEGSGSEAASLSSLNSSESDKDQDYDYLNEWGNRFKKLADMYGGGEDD
Description: (§1) Substrate trapping—Prior to lysis, T-47D and T-47D/Met cells were treated with 50 μM pervanadate for 20 minutes, whereas MDA-MB-231 cells were treated with 100 μM pervanadate for 20 minutes. Cells were rinsed with PBS and lysed in 1% NP-40 buffer (1% NP-40,150 mM NaCl, 20 mM HEPES pH7.5, 1 mM EDTA, 5 μg/ml aprotinin, 5 μg/ml leupeptin, 1 mM benzamidine). For trapping experiments in vitro, the lysis buffer also contained 5 mM iodoacetic acid to inhibit cellular PTPs irreversibly. After incubation on ice for 5 minutes, dithiothreitol was added to a final concentration of 10 mM to inactivate any unreacted iodoacetic acid. Insoluble material was removed by centrifugation. […] Lysates and fusion proteins were incubated at 4° C. for 2 hours and then washed extensively with 1% NP-40 buffer. Tyrosine phosphorylated proteins were immunoprecipitated using 0.1 mg T-47D cell lysate and a combination of 5 μl each of anti-phosphotyrosine antibodies PT-66 and 4G10. Lysate and antibodies were incubated at 4° C. for 2 hours and washed extensively with 1% NP-40 buffer.

Met, the HGF/SF receptor = molecular target: T3, Met, the HGF/SF receptor (Homo sapiens (Human), UniProt P08581 25-1390, tyrosine phosphorylated (cells treated with pervanadate); sites not stated); test: amylose pull-down from pervanadate-treated T-47D/Met lysate, anti-Met immunoblot
T3 construct: also called HGF-R; HGF/SF receptor Met
Description: as §1

B1: full length DEP-1(CS) (protein)
chain: AGGTPSPIPDPSVATVATGENGITQISSTAESFHKQNGTGTPQVETNTSEDGESSGANDSLRTPEQGSNGTDGASQKTPSSTGPSPVFDIKAVSISPTNVILTWKSNDTAASEYKYVVKHKMENEKTITVVHQPWCNITGLRPATSYVFSITPGIGNETWGDPRVIKVITEPIPVSDLRVALTGVRKAALSWSNGNGTASCRVLLESIGSHEELTQDSRLQVNISDLKPGVQYNINPYLLQSNKTKGDPLGTEGGLDASNTERSRAGSPTAPVHDESLVGPVDPSSGQQSRDTEVLLVGLEPGTRYNATVYSQAANGTEGQPQAIEFRTNAIQVFDVTAVNISATSLTLIWKVSDNESSSNYTYKIHVAGETDSSNLNVSEPRAVIPGLRSSTFYNITVCPVLGDIEGTPGFLQVHTPPVPVSDFRVTVVSTTEIGLAWSSHDAESFQMHITQEGAGNSRVEITTNQSIIIGGLFPGTKYCFEIVPKGPNGTEGASRTVCNRTVPSAVFDIHVVYVTTTEMWLDWKSPDGASEYVYHLVIESKHGSNHTSTYDKAITLQGLIPGTLYNITISPEVDHVWGDPNSTAQYTRPSNVSNIDVSTNTTAATLSWQNFDDASPTYSYCLLIEKAGNSSNATQVVTDIGITDATVTELIPGSSYTVEIFAQVGDGIKSLEPGRKSFCTDPASMASFDCEVVPKEPALVLKWTCPPGANAGFELEVSSGAWNNATHLESCSSENGTEYRTEVTYLNFSTSYNISITTVSCGKMAAPTRNTCTTGITDPPPPDGSPNITSVSHNSVKVKFSGFEASHGPIKAYAVILTTGEAGHPSADVLKYTYDDFKKGASDTYVTYLIRTEEKGRSQSLSEVLKYEIDVGNESTTLGYYNGKLEPLGSYRACVAGFTNITFHPQNKGLIDGAESYVSFSRYSDAVSLPQDPGVICGAVFGCIFGALVIVTVGGFIFWRKKRKDAKNNEVSFSQIKPKKSKLIRVENFEAYFKKQQADSNCGFAEEYEDLKLVGISQPKYAAELAENRGKNRYNNVLPYDISRVKLSVQTHSTDDYINANYMPGYHSKKDFIATQGPLPNTLKDFWRMVWEKNVYAIIMLTKCVEQGRTKCEEYWPSKQAQDYGDITVAMTSEIVLPEWTIRDFTVKNIQTSESHPLRQFHFTSWPDHGVPDTTDLLINFRYLVRDYMKQSPPESPILVHSSAGVGRTGTFIAIDRLIYQIENENTVDVYGIVYDLRMHRPLMVQTEDQYVFLNQCVLDIVRSQKDSKVDLIYQNTTAMTIYENLAPVTTFGKTNGYIA
[1]
  phosphorylation of Met (phospho-specific antibodies): no effect on phosphorylation of Met was observed with the expression of DEP-1(CS)
  phosphorylation of Tyr^1349 of Met (phospho-specific antibody): no change in the phosphorylation level of Tyr^1349 was observed in the presence of DEP-1(CS)

B2: full length wild type DEP-1 (protein)
chain: AGGTPSPIPDPSVATVATGENGITQISSTAESFHKQNGTGTPQVETNTSEDGESSGANDSLRTPEQGSNGTDGASQKTPSSTGPSPVFDIKAVSISPTNVILTWKSNDTAASEYKYVVKHKMENEKTITVVHQPWCNITGLRPATSYVFSITPGIGNETWGDPRVIKVITEPIPVSDLRVALTGVRKAALSWSNGNGTASCRVLLESIGSHEELTQDSRLQVNISDLKPGVQYNINPYLLQSNKTKGDPLGTEGGLDASNTERSRAGSPTAPVHDESLVGPVDPSSGQQSRDTEVLLVGLEPGTRYNATVYSQAANGTEGQPQAIEFRTNAIQVFDVTAVNISATSLTLIWKVSDNESSSNYTYKIHVAGETDSSNLNVSEPRAVIPGLRSSTFYNITVCPVLGDIEGTPGFLQVHTPPVPVSDFRVTVVSTTEIGLAWSSHDAESFQMHITQEGAGNSRVEITTNQSIIIGGLFPGTKYCFEIVPKGPNGTEGASRTVCNRTVPSAVFDIHVVYVTTTEMWLDWKSPDGASEYVYHLVIESKHGSNHTSTYDKAITLQGLIPGTLYNITISPEVDHVWGDPNSTAQYTRPSNVSNIDVSTNTTAATLSWQNFDDASPTYSYCLLIEKAGNSSNATQVVTDIGITDATVTELIPGSSYTVEIFAQVGDGIKSLEPGRKSFCTDPASMASFDCEVVPKEPALVLKWTCPPGANAGFELEVSSGAWNNATHLESCSSENGTEYRTEVTYLNFSTSYNISITTVSCGKMAAPTRNTCTTGITDPPPPDGSPNITSVSHNSVKVKFSGFEASHGPIKAYAVILTTGEAGHPSADVLKYTYDDFKKGASDTYVTYLIRTEEKGRSQSLSEVLKYEIDVGNESTTLGYYNGKLEPLGSYRACVAGFTNITFHPQNKGLIDGAESYVSFSRYSDAVSLPQDPGVICGAVFGCIFGALVIVTVGGFIFWRKKRKDAKNNEVSFSQIKPKKSKLIRVENFEAYFKKQQADSNCGFAEEYEDLKLVGISQPKYAAELAENRGKNRYNNVLPYDISRVKLSVQTHSTDDYINANYMPGYHSKKDFIATQGPLPNTLKDFWRMVWEKNVYAIIMLTKCVEQGRTKCEEYWPSKQAQDYGDITVAMTSEIVLPEWTIRDFTVKNIQTSESHPLRQFHFTSWPDHGVPDTTDLLINFRYLVRDYMKQSPPESPILVHCSAGVGRTGTFIAIDRLIYQIENENTVDVYGIVYDLRMHRPLMVQTEDQYVFLNQCVLDIVRSQKDSKVDLIYQNTTAMTIYENLAPVTTFGKTNGYIA
[1]
  phosphorylation of Tyr^1230, Tyr^1234 and Tyr^1235 of Met (phospho-specific antibodies): a gradual decrease in the level of phosphorylation of the activation loop tyrosine residues was observed with increasing expression of wild type DEP-1
  phosphorylation of Tyr^1349 of Met (phospho-specific antibody): Tyr^1349 was nearly completely dephosphorylated in the presence of low levels of DEP-1
  phosphorylation of Tyr^1365 of Met (phospho-specific antibody): Tyr^1365 was nearly completely dephosphorylated in the presence of low levels of DEP-1

B3: MBP.DEP-1(DA) (enzyme, not shown: large carriers; small tags and cut ends)
chain: RKKRKDAKNNEVSFSQIKPKKSKLIRVENFEAYFKKQQADSNCGFAEEYEDLKLVGISQPKYAAELAENRGKNRYNNVLPYDISRVKLSVQTHSTDDYINANYMPGYHSKKDFIATQGPLPNTLKDFWRMVWEKNVYAIIMLTKCVEQGRTKCEEYWPSKQAQDYGDITVAMTSEIVLPEWTIRDFTVKNIQTSESHPLRQFHFTSWPAHGVPDTTDLLINFRYLVRDYMKQSPPESPILVHCSAGVGRTGTFIAIDRLIYQIENENTVDVYGIVYDLRMHRPLMVQTEDQYVFLNQCVLDIVRSQKDSKVDLIYQNTTAMTIYENLAPVTTFGKTNGYIA
notes: also called DEP-1 substrate-trapping mutant (DA); DEP-1(DA) cytoplasmic domain fusion protein
E-cadherin
  binding result: no binding (tested: 1 µg fusion protein to 500 µg lysate)

B4: MBP.DEP-1 (enzyme, not shown: large carriers)
chain: RKKRKDAKNNEVSFSQIKPKKSKLIRVENFEAYFKKQQADSNCGFAEEYEDLKLVGISQPKYAAELAENRGKNRYNNVLPYDISRVKLSVQTHSTDDYINANYMPGYHSKKDFIATQGPLPNTLKDFWRMVWEKNVYAIIMLTKCVEQGRTKCEEYWPSKQAQDYGDITVAMTSEIVLPEWTIRDFTVKNIQTSESHPLRQFHFTSWPDHGVPDTTDLLINFRYLVRDYMKQSPPESPILVHCSAGVGRTGTFIAIDRLIYQIENENTVDVYGIVYDLRMHRPLMVQTEDQYVFLNQCVLDIVRSQKDSKVDLIYQNTTAMTIYENLAPVTTFGKTNGYIA
notes: also called wild type DEP-1 (MBP-DEP-1); wildtype DEP-1 fusion protein
Met, the HGF/SF receptor
  binding result: no binding (tested: 1 µg fusion protein to 500 µg lysate)
